{"source": "patent US20220153847A1", "about": "(Chugai, published 2022)", "key": {"[1]": {"molecular_target": "DQ2.5/alpha 2 gliadin peptide on IHW9023 cells (human)", "experiment": "cell-based or functional assay"}, "[2]": {"molecular_target": "DQ2.5/BC hordein peptide on IHW9023 cells (human)", "experiment": "cell-based or functional assay"}, "[3]": {"molecular_target": "DQ2.5/gamma 1 gliadin peptide on IHW9023 cells (human)", "experiment": "cell-based or functional assay"}, "[4]": {"molecular_target": "DQ2.5/omega 2 gliadin peptide on IHW9023 cells (human)", "experiment": "cell-based or functional assay"}, "[5]": {"molecular_target": "T1, HLA-DQ2.5/BC hordein peptide complex on Ba/F3 cells (human)", "T1 construct": "whole, on cells; also called Ba/F3-HLA-DQ2.5/BC hordein", "experiment": "FACS, Ba/F3 cells; IC17=0%, DQN0139bb=100%;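 also: flow cytometric binding of anti-HLA-DQ antibodies, each applied at 5 µg/mL for 30 min at room temperature, to Ba/F3 cell lines displaying HLA-DQ–peptide complexes; antibody tested at 5 microgram/mL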", "description": "(§1) The binding of anti-HLA-DQ antibodies to Ba/F3-HLA-DQ2.5, Ba/F3-HLA-DQ2.2, Ba/F3-HLA-DQ7.5, Ba/F3-HLA-DQ8, Ba/F3-HLA-DQ5.1, Ba/F3-HLA-DQ6.3, Ba/F3-HLA-DQ7.3, Ba/F3-HLA-DR, Ba/F3-HLA-DP, Ba/F3-HLA-DQ2.5/CLIP, Ba/F3-HLA-DQ2.5/HBV, Ba/F3-HLA-DQ2.5/Salmonella, Ba/F3-HLA-DQ2.5/TPO, Ba/F3-HLA-DQ2.5/M. bovis, Ba/F3-HLA-DQ2.5/alpha 1 gliadin, Ba/F3-HLA-DQ2.5/alpha 2 gliadin, Ba/F3-HLA-DQ2.5/gamma 1 gliadin, Ba/F3-HLA-DQ2.5/gamma 2 gliadin, Ba/F3-HLA-DQ2.5/omega 1 gliadin, Ba/F3-HLA-DQ2.5/omega 2 gliadin, Ba/F3-HLA-DQ2.5/BC hordein, Ba/F3-HLA-DQ2.5/alpha 3 gliadin, Ba/F3-HLA-DQ2.5/alpha 1b gliadin, Ba/F3-HLA-DQ2.5/gamma 4b gliadin, Ba/F3-HLA-DQ2.5/avenin 1, Ba/F3-HLA-DQ2.5/avenin 2, Ba/F3-HLA-DQ2.5/avenin 3, Ba/F3-HLA-DQ2.5/hordein 1, Ba/F3-HLA-DQ2.5/hordein 2, Ba/F3-HLA-DQ2.5/secalin 1, Ba/F3-HLA-DQ2.5/secalin 2, Ba/F3-HLA-DQ2.5/14mer 1, Ba/F3-HLA-DQ2.5/33mer gliadin, Ba/F3-HLA-DQ2.5/26mer gliadin, was tested. 5 microgram/mL of each of the anti-HLA-DQ antibodies was incubated with each cell line for 30 minutes at room temperature and washed with FACS buffer (2% FBS, 2 mM EDTA in PBS)."}, "[6]": {"molecular_target": "T2, HLA-DQ2.5/26mer gliadin peptide complex on Ba/F3 cells (human)", "T2 construct": "whole, on cells; also called Ba/F3-HLA-DQ2.5/26mer gliadin", "experiment": "FACS, Ba/F3 cells; IC17=0%, DQN0139bb=100%", "description": "as §1"}, "[7]": {"molecular_target": "T3, HLA-DQ2.5/14mer 1 peptide complex on Ba/F3 cells (human)", "T3 construct": "whole, on cells; also called Ba/F3-HLA-DQ2.5/14mer 1", "experiment": "FACS, Ba/F3 cells; IC17=0%, DQN0139bb=100%", "description": "as §1"}, "[8]": {"molecular_target": "T4, HLA-DQ2.5/gamma 4b gliadin peptide complex on Ba/F3 cells (human)", "T4 construct": "whole, on cells; also called Ba/F3-HLA-DQ2.5/gamma 4b gliadin; HLA-DQ2.5/g4b gliadin", "experiment": "FACS, Ba/F3 cells; IC17=0%, DQN0139bb=100%", "description": "as §1"}, "[9]": {"molecular_target": "T5, HLA-DQ2.5/secalin 1 peptide complex on Ba/F3 cells (human)", "T5 construct": "whole, on cells; also called Ba/F3-HLA-DQ2.5/secalin 1", "experiment": "FACS, Ba/F3 cells; IC17=0%, DQN0139bb=100%", "description": "as §1"}, "[10]": {"molecular_target": "T6, HLA-DQ2.5/avenin 1 peptide complex on Ba/F3 cells (human)", "T6 construct": "whole, on cells; also called Ba/F3-HLA-DQ2.5/avenin 1", "experiment": "FACS, Ba/F3 cells; IC17=0%, DQN0139bb=100%", "description": "as §1"}, "[11]": {"molecular_target": "T7, HLA-DQ2.5/omega 1 gliadin peptide complex on Ba/F3 cells (human)", "T7 construct": "whole, on cells; also called Ba/F3-HLA-DQ2.5/omega 1 gliadin; HLA-DQ2.5/w1 gliadin", "experiment": "FACS, Ba/F3 cells; IC17=0%, DQN0139bb=100%", "description": "as §1"}, "[12]": {"molecular_target": "T8, HLA-DQ2.5/33mer gliadin peptide complex on Ba/F3 cells (human)", "T8 construct": "whole, on cells; also called Ba/F3-HLA-DQ2.5/33mer gliadin", "experiment": "FACS, Ba/F3 cells; IC17=0%, DQN0139bb=100%", "description": "as §1"}, "[13]": {"molecular_target": "T9, HLA-DQ2.5/hordein 1 peptide complex on Ba/F3 cells (human)", "T9 construct": "whole, on cells; also called Ba/F3-HLA-DQ2.5/hordein 1", "experiment": "FACS, Ba/F3 cells; IC17=0%, DQN0139bb=100%", "description": "as §1"}, "[14]": {"molecular_target": "T10, HLA-DQ2.5/avenin 2 peptide complex on Ba/F3 cells (human)", "T10 construct": "whole, on cells; also called Ba/F3-HLA-DQ2.5/avenin 2", "experiment": "FACS, Ba/F3 cells; IC17=0%, DQN0139bb=100%", "description": "as §1"}, "[15]": {"molecular_target": "T11, HLA-DQ2.5/avenin 3 peptide complex on Ba/F3 cells (human)", "T11 construct": "whole, on cells; also called Ba/F3-HLA-DQ2.5/avenin 3", "experiment": "FACS, Ba/F3 cells; IC17=0%, DQN0139bb=100%", "description": "as §1"}, "[16]": {"molecular_target": "T12, HLA-DQ2.5/alpha 2 gliadin peptide complex on Ba/F3 cells (human)", "T12 construct": "whole, on cells; also called Ba/F3-HLA-DQ2.5/alpha 2 gliadin; HLA-DQ2.5/a2 gliadin", "experiment": "FACS, Ba/F3 cells; IC17=0%, DQN0139bb=100%", "description": "as §1"}, "[17]": {"molecular_target": "T13, HLA-DQ2.5/alpha 1b gliadin peptide complex on Ba/F3 cells (human)", "T13 construct": "whole, on cells; also called Ba/F3-HLA-DQ2.5/alpha 1b gliadin; HLA-DQ2.5/a1b gliadin", "experiment": "FACS, Ba/F3 cells; IC17=0%, DQN0139bb=100%", "description": "as §1"}, "[18]": {"molecular_target": "T14, HLA-DQ2.5/CLIP peptide complex on Ba/F3 cells (human)", "T14 construct": "whole, on cells; also called Ba/F3-HLA-DQ2.5/CLIP", "T14 sequence (P04233 96-124, chain 2 of 2, other chains not shown)": "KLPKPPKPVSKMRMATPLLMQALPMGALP", "experiment": "FACS, Ba/F3 cells; IC17=0%, DQN0139bb=100%", "description": "as §1"}, "HLA-DQ2.2 on Ba/F3 cells": {"molecular_target": "T15, HLA-DQ2.2 on Ba/F3 cells (human, UniProt P01909 24-216, limits assumed)", "T15 construct": "whole, on cells; also called Ba/F3-HLA-DQ2.2", "T15 MHC II alpha": "not shown", "T15 MHC II beta": "not shown", "experiment": "FACS, Ba/F3 cells; IC17=0%, DQN0139bb=100%"}, "[19]": {"molecular_target": "T16, HLA-DQ2.5/omega 2 gliadin peptide complex on Ba/F3 cells (human)", "T16 construct": "whole, on cells; also called Ba/F3-HLA-DQ2.5/omega 2 gliadin; HLA-DQ2.5/w2 gliadin", "experiment": "FACS, Ba/F3 cells; IC17=0%, DQN0139bb=100%", "description": "as §1"}, "[20]": {"molecular_target": "T17, HLA-DQ2.5/secalin 2 peptide complex on Ba/F3 cells (human)", "T17 construct": "whole, on cells; also called Ba/F3-HLA-DQ2.5/secalin 2", "experiment": "FACS, Ba/F3 cells; IC17=0%, DQN0139bb=100%", "description": "as §1"}, "HLA-DQ7.5 on Ba/F3 cells": {"molecular_target": "T18, HLA-DQ7.5 on Ba/F3 cells (human, UniProt P01909 24-216; P01920 33-230, limits assumed)", "T18 construct": "whole, on cells; also called Ba/F3-HLA-DQ7.5", "T18 sequence (P01920 33-230 limits assumed, chain 2 of 4, other chains not shown)": "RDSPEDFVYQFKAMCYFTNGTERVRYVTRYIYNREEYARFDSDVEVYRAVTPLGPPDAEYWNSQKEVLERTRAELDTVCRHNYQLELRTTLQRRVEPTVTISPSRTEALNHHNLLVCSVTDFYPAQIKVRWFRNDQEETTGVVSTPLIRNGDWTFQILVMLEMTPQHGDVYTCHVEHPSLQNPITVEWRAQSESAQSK", "experiment": "FACS, Ba/F3 cells; IC17=0%, DQN0139bb=100%", "description": "as §1"}, "[21]": {"molecular_target": "T19, HLA-DQ2.5/alpha 3 gliadin peptide complex on Ba/F3 cells (human)", "T19 construct": "whole, on cells; also called Ba/F3-HLA-DQ2.5/alpha 3 gliadin; HLA-DQ2.5/a3 gliadin", "experiment": "FACS, Ba/F3 cells; IC17=0%, DQN0139bb=100%", "description": "as §1"}, "[22]": {"molecular_target": "T20, HLA-DQ2.5/gamma 2 gliadin peptide complex on Ba/F3 cells (human)", "T20 construct": "whole, on cells; also called Ba/F3-HLA-DQ2.5/gamma 2 gliadin; HLA-DQ2.5/g2 gliadin", "experiment": "FACS, Ba/F3 cells; IC17=0%, DQN0139bb=100%", "description": "as §1"}, "[23]": {"molecular_target": "T21, HLA-DQ2.5/hordein 2 peptide complex on Ba/F3 cells (human)", "T21 construct": "whole, on cells; also called Ba/F3-HLA-DQ2.5/hordein 2", "experiment": "FACS, Ba/F3 cells; IC17=0%, DQN0139bb=100%", "description": "as §1"}, "HLA-DQ8 on Ba/F3 cells": {"molecular_target": "T22, HLA-DQ8 on Ba/F3 cells (human, UniProt P01909 24-216; P01920 33-230, limits assumed)", "T22 construct": "whole, on cells; also called Ba/F3-HLA-DQ8", "T22 MHC II alpha": "not shown", "T22 MHC II beta": "not shown", "experiment": "FACS, Ba/F3 cells; IC17=0%, DQN0139bb=100%"}, "HLA-DQ7.3 on Ba/F3 cells": {"molecular_target": "T23, HLA-DQ7.3 on Ba/F3 cells (human, UniProt P01909 24-216; P01920 33-230, limits assumed)", "T23 construct": "whole, on cells; also called Ba/F3-HLA-DQ7.3", "T23 MHC II alpha": "not shown", "T23 MHC II beta": "not shown", "experiment": "FACS, Ba/F3 cells; IC17=0%, DQN0139bb=100%"}, "[24]": {"molecular_target": "T24, HLA-DQ2.5/gamma 1 gliadin peptide complex on Ba/F3 cells (human)", "T24 construct": "whole, on cells; also called Ba/F3-HLA-DQ2.5/gamma 1 gliadin; HLA-DQ2.5/g1 gliadin", "experiment": "FACS, Ba/F3 cells; IC17=0%, DQN0139bb=100%", "description": "as §1"}}}
{"binder": "DQN0429cc (antibody, V domains shown, also called DQN0492cc) VH: QEQLVESGGGLVQPEGSLTLTCTASGFSFSSSYYMCWVRQAPGKGLEWIGCIYTGSGSTDYATWVNGRFTISKTSSTTVTLQMTSLTVADTATYFCARDIGIDYNFWGPGTLVTVSS VL: AFELTQTPSFVEARVGGTVTIKCQATQSISSYLNWYQQKPGQPPKLLIYYASTLASGVPSRFKGSGSGTEFTLTISGVECADAATYYCHYGISYVSFGGGTKVEIK", "values": [{"measurement": "IC50, Jurkat NFAT-Luc T cell activation", "setting": "[1]", "value": 0.00497, "unit": "µg/mL"}, {"measurement": "IC50, Jurkat NFAT-Luc T cell activation", "setting": "[2]", "value": 0.786, "unit": "µg/mL"}, {"measurement": "IC50, Jurkat NFAT-Luc T cell activation", "setting": "[3]", "value": 0.235, "unit": "µg/mL"}, {"measurement": "IC50, Jurkat NFAT-Luc T cell activation", "setting": "[4]", "value": 0.0215, "unit": "µg/mL"}, {"measurement": "% MFI", "setting": "[5]", "value": 26.4, "unit": "%"}, {"measurement": "% MFI", "setting": "[6]", "value": 64, "unit": "%"}, {"measurement": "% MFI", "setting": "[7]", "value": 58.5, "unit": "%"}, {"measurement": "% MFI", "setting": "[8]", "value": 13.6, "unit": "%"}, {"measurement": "% MFI", "setting": "[9]", "value": 11.8, "unit": "%"}, {"measurement": "% MFI", "setting": "[10]", "value": 0.8, "unit": "%"}, {"measurement": "% MFI", "setting": "[11]", "value": 13.4, "unit": "%"}, {"measurement": "% MFI", "setting": "[12]", "value": 50.2, "unit": "%"}, {"measurement": "% MFI", "setting": "[13]", "value": 4.5, "unit": "%"}, {"measurement": "% MFI", "setting": "[14]", "value": 2.9, "unit": "%"}, {"measurement": "% MFI", "setting": "[15]", "value": 0.1, "unit": "%"}, {"measurement": "% MFI", "setting": "[16]", "value": 67.7, "unit": "%"}, {"measurement": "% MFI", "setting": "[17]", "value": 15.7, "unit": "%"}, {"measurement": "% MFI", "setting": "[18]", "value": 0.2, "unit": "%"}, {"measurement": "% MFI", "setting": "HLA-DQ2.2 on Ba/F3 cells", "value": 0.7, "unit": "%"}, {"measurement": "% MFI", "setting": "[19]", "value": 45.5, "unit": "%"}, {"measurement": "% MFI", "setting": "[20]", "value": 27.7, "unit": "%"}, {"measurement": "% MFI", "setting": "HLA-DQ7.5 on Ba/F3 cells", "value": 0.2, "unit": "%"}, {"measurement": "% MFI", "setting": "[21]", "value": 9.4, "unit": "%"}, {"measurement": "% MFI", "setting": "[22]", "value": 6.2, "unit": "%"}, {"measurement": "% MFI", "setting": "[23]", "value": 70.6, "unit": "%"}, {"measurement": "% MFI", "setting": "HLA-DQ8 on Ba/F3 cells", "value": 0.2, "unit": "%"}, {"measurement": "% MFI", "setting": "HLA-DQ7.3 on Ba/F3 cells", "value": 0.2, "unit": "%"}, {"measurement": "% MFI", "setting": "[24]", "value": 36.6, "unit": "%"}]}
